Like-named read-outs stand apart in the source and are kept apart here.
Columns and labels:
[1] = molecular target: the molecule itself; experiment: SEC
[2] = molecular target: the molecule itself; experiment: SEC; remark: listed apart in the source

B1: Mycobacterium smegmatis guanosine 5'-monophosphate reductase (Msm GMPR), product of the guaB1 gene (enzyme, UniProt A0QYE8 1-478, looked up)
chain: MRFLDGHTPAYDLTYNDVFVVPGRSDVASRFDVDLSTVDGSGTTIPVVVANMTAVAGRRMAETVARRGGIVVLPQDLPITAVSETVDFVKSRDLVVDTPVTLSPEDSVSDANALLHKRAHGAAVVVFEGRPIGLVTEANCAGVDRFARVRDIALSDFVTAPVGTDPREVFDLLEHAPIDVAVMTAPDGTLAGVLTRTGAIRAGIYTPAVDAKGRLRIAAAVGINGDVGAKAQALAEAGADLLVIDTAHGHQAKMLDAIKAVASLDLGLPLVAGNVVSAEGTRDLIEAGASIVKVGVGPGAMCTTRMMTGVGRPQFSAVVECAAAARQLGGHVWADGGVRHPRDVALALAAGASNVMIGSWFAGTYESPGDLLFDRDDRPYKESYGMASKRAVAARTAGDSSFDRARKGLFEEGISTSRMSLDPARGGVEDLLDHITSGVRSTCTYVGAANLPELHEKVVLGVQSAAGFAEGHPLPAGW
stoichiometry N [1]: 8 | stoichiometry N [2]: 4
